{
  "source": "paper PMC10924945",
  "assay_in_all_cases": "EMSA",
  "key": {"[1]": {"molecular_target": "T1, BfmR (Pseudomonas aeruginosa PAO1) (UniProt Q9HWS7)", "T1 sequence": "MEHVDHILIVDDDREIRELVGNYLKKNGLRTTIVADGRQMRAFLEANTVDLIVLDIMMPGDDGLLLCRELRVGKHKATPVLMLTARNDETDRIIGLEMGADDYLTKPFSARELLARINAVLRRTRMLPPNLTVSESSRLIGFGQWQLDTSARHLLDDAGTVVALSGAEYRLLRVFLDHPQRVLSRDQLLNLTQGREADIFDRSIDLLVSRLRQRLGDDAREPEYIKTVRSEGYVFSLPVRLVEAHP"}, "[2]": {"molecular_target": "T2, BfmR D205A D205A (Pseudomonas aeruginosa PAO1) (UniProt Q9HWS7)", "T2 sequence": "T1 sequence with D205A"}, "[3]": {"molecular_target": "T3, BfmR R185A R185A (Pseudomonas aeruginosa PAO1) (UniProt Q9HWS7)", "T3 sequence": "T1 sequence with R185A"}, "[4]": {"molecular_target": "T4, BfmR R202A R202A (Pseudomonas aeruginosa PAO1) (UniProt Q9HWS7)", "T4 sequence": "T1 sequence with R202A"}, "[5]": {"molecular_target": "T5, BfmR R210A R210A (Pseudomonas aeruginosa PAO1) (UniProt Q9HWS7)", "T5 sequence": "T1 sequence with R210A"}, "[6]": {"molecular_target": "T6, BfmR R212A R212A (Pseudomonas aeruginosa PAO1) (UniProt Q9HWS7)", "T6 sequence": "T1 sequence with R212A"}, "[7]": {"molecular_target": "T7, BfmR S209A S209A (Pseudomonas aeruginosa PAO1) (UniProt Q9HWS7)", "T7 sequence": "T1 sequence with S209A"}, "[8]": {"molecular_target": "T8, BfmR T227A T227A (Pseudomonas aeruginosa PAO1) (UniProt Q9HWS7)", "T8 sequence": "T1 sequence with T227A"}},
  "note": "Changes are numbered by the printed parent chain.",
  "data": [
    {"sequence": "CATCGGATTCCTGCGAATACTACTGATAACGATAATCTCTATCATTTACTCCATTTTTACATTTACATACACTTGCCCCGCCGCGAATTCCTACGCCGGTTTCCCACATAAACAAGAAACGC (double strand) [PfpvB]", "values": [
      {"measurement": "binding", "setting": "[1]", "value": "binds"},
      {"measurement": "binding", "setting": "[2]", "value": "binds more weakly"},
      {"measurement": "binding", "setting": "[3]", "value": "binds more weakly"},
      {"measurement": "binding", "setting": "[4]", "value": "binds more weakly"},
      {"measurement": "binding", "setting": "[5]", "value": "binds more weakly"},
      {"measurement": "binding", "setting": "[6]", "value": "binds more weakly"},
      {"measurement": "binding", "setting": "[7]", "value": "binds more weakly"},
      {"measurement": "binding", "setting": "[8]", "value": "binds more weakly"}
    ]}
  ]
}
